{
  "source": "patent US20220143140A1",
  "about": "“ANTI-CD6 ANTIBODY COMPOSITIONS AND METHODS FOR TREATING LUPUS” (Equillium, Inc., priority 2019, published 2022)",
  "molecules": {"B1": {"name": "EQ001: itolizumab, humanized anti-CD6 antibody, produced in CHO cells; VH/VK SEQ ID NOS: 1 and 2 (antibody, V domains shown)", "VH": "EVQLVESGGGLVKPGGSLKLSCAASGFKFSRYAMSWVRQAPGKRLEWVATISSGGSYIYYPDSVKGRFTISRDNVKNTLYLQMSSLRSEDTAMYYCARRDYDLDYFDSWGQGTLVTVSS", "VL": "DIQMTQSPSSLSASVGDRVTITCKASRDIRSYLTWYQQKPGKAPKTLIYYATSLADGVPSRFSGSGSGQDYSLTISSLESDDTATYYCLQHGESPFTLGSGTKLEIK", "modifications": "Made in Lab - synthesized VH amino acid sequence; Made in Lab - synthesized VK amino acid sequence"}},
  "test_system": "subjects with active lupus nephritis",
  "assay": "Clinical trial: urinary soluble CD6 and soluble ALCAM before and after EQ001",
  "assay_type": "in vivo, human",
  "method": "30 ml of urine is collected from a patient (or control individual) and treated with a protease inhibitor cocktail tablet on ice (MiliporeSigma, Burlington, Mass., USA) according to manufacturer's instructions. The sample is centrifuged at 10,000×g for 1 min or 5,000×g for 2 min, and the urine is removed from any pellet, aliquoted, and quick frozen in a dry ice/methanol bath and stored at −80° C. until use.\nSeveral suitable ELISA kits are available commercially and are suitable for use in detecting soluble ALCAM and soluble CD6. For example, human ALCAM DuoSet ELISA (R&D Systems, Minneapolis, Minn.) is utilized according to the manufacturer's instructions to measure soluble ALCAM in a urine sample, and quantification is performed by generating a standard curve. Human CD6 ELISA kit (Sandwich ELISA)(LifeSpan BioSciences, Inc, Seattle, Wash.) is utilized according to the manufacturer's instructions to measure soluble CD6 in a urine sample, and quantification is performed by generating a standard curve.\nIn order to determine whether high urinary levels of soluble CD6 and soluble ALCAM can be used as a biomarker for sensitivity to treatment with EQ001, a clinical trial is performed in which concentrations of these markers are analyzed in the urine of subjects with active lupus nephritis before and after treatment with EQ001.\nUrine samples are collected from the subjects biweekly for 2-3 months to establish individual baseline urinary soluble CD6 and soluble ALCAM concentrations. Treatment is initiated after at least five baseline measurements are obtained. Subjects receive EQ001 or vehicle administered intravenously every two weeks for a total of 5 doses, and a urine sample is collected 3 days after initial dosing, and twice weekly thereafter over the course of the study, which continues for 20 weeks post-initial treatment.\nAs described above, immediately after collection, samples are treated, aliquoted, and frozen in accordance with the above method, and upon the completion of the study, samples are tested by ELISA.",
  "key": {"[1]": {"conditions": "Cohort 4, active lupus nephritis, iv every two weeks, 5 doses, ELISA"}},
  "data": [
    {"molecule": "B1", "values": [
      {"measurement": "urinary soluble ALCAM levels", "setting": "[1]", "value": "significant decreases"},
      {"measurement": "urinary soluble CD6 levels", "setting": "[1]", "value": "significant decreases"},
      {"measurement": "response to treatment by basal soluble CD6 and soluble ALCAM", "setting": "subjects with the highest basal levels", "value": "respond most dramatically"}
    ]}
  ]
}
